Assay [1] addresses T1, NME7-AB (recombinant human NME7 comprising essentially the NDPK A and B domains, expressed in E. coli) (human, UniProt Q9Y5B8 92-376).
T1 construct: Monomeric; purified over NTA-Ni and by size exclusion; the purification described uses Ni-NTA; also called recombinant NME7; NME7 (NME7-AB construct); not shown: a Strep Tag II version was al
T1 sequence: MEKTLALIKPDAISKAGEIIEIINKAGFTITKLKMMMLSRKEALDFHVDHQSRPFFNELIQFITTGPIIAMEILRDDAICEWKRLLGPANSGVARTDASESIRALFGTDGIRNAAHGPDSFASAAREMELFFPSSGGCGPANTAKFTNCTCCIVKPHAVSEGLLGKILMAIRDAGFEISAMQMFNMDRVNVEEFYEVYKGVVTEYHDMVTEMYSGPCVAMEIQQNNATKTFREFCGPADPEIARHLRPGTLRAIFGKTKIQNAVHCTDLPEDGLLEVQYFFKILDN
The assay can be described thus: sandwich ELISA, NME7-AB held on plate-bound PSMGFR, detection with streptavidin. How it is done:
(§1) The PSMGFR peptide bearing a C-terminal Cysteine (PSMGFR-Cys) was covalently coupled to BSA using Inject Maleimide activated BSA kit (Thermo Fisher). PSMGFR-Cys coupled BSA was diluted to 10 ug/mL in 0.1M carbonate/bicarbonate buffer pH 9.6 and 50 uL was added to each well of a 96 well plate. After overnight incubation at 4° C., the plate was wash twice with PBS-T and a 3% BSA solution was added to block remaining binding site on the well. After 1 h at RT the plate was washed twice with PBS-T and NME7, diluted in PBS-T+1% BSA, was added at different concentrations. After 1 h at RT the plate was washed 3× with PBS-T and anti-NM23-H7 (B-9, Santa Cruz Biotechnology), diluted in PBS-T+1% BSA, was added at 1/500 dilution. […] After 1 h at RT the plate was washed 3× with PBS-T and binding of NME7 was measured at 415 nm using a ABTS solution (Pierce). […]
(§2) After 1 h at RT the plate was washed 3× with PBS-T and HisTagged PSMGFR peptide (PSMGFR-His) or biotinylated PSMGFR peptide (PSMGFR-biotin), diluted in PBS-T+1% BSA, was added at different concentration. […] After 1 h at RT the plate was washed 3× with PBS-T and binding of PSMGFR peptide to NME7 already bound to another PSMGFR peptide (which could not signal by anti-His antibody or by streptavidin) coupled BSA was measured at 415 nm using a ABTS solution (Pierce).

The target of assay [2] is T1, NME7-AB (recombinant human NME7 …). Description: gold nanoparticle aggregation assay. Here is the method:
Gold nanoparticles of a diameter of 30.0 nm were coated with an NTA-SAM surface according to Thompson et al. (ACS Appl. Mater. Interfaces, 2011, 3 (8), pp 2979-2987). The NTA-SAM coated gold nanoparticles were then activated with an equal volume of 180 uM NiSO₄, incubated for 10 min at room temperature, washed, and resuspended in a 10 mM phosphate buffer (pH 7.4). The gold nanoparticles were then loaded with PSMGFR N-10 peptide ([…]-HHHHHH (SEQ ID NO:112)) at 0.5 uM final concentration, and incubated at room temperature for 10 min Recombinant NME7-AB protein expressed and purified from E. coli was added free in solution at the concentrations indicated. When particle-immobilized proteins bind to each other, or simultaneously bind to two different peptides on two different particles, the particle solution color changes from pink/red to purple/blue. If the protein added free in solution causes particle aggregation, it is strong evidence that the free protein dimerizes the cognate peptide, since binding to a single peptide would not induce two or more particles to be brought into close proximity to each other.
The NME7-AB is added free in solution at the concentrations indicated. Solution color change from pink to purple/blue from particle aggregation indicates binding between the MUC* peptide on the particles and NME7 free in solution. […]

Assay [3] has the same target. The assay can be described thus: ELISA, carrier-coupled PSMGFR-Cys on plate. How it is done:
The PSMGFR peptide bearing a C-terminal Cysteine (PSMGFR-Cys) was covalently coupled to BSA using Inject Maleimide activated BSA kit (Thermo Fisher). PSMGFR-Cys coupled BSA was diluted to 10 ug/mL in 0.1M carbonate/bicarbonate buffer pH 9.6 and 50 uL was added to each well of a 96 well plate. After overnight incubation at 4° C., the plate was wash twice with PBS-T and a 3% BSA solution was added to block remaining binding site on the well. After 1 h at RT the plate was washed twice with PBS-T and NME7, diluted in PBS-T+1% BSA, was added at different concentrations. After 1 h at RT the plate was washed 3× with PBS-T and anti-NM23-H7 (B-9, Santa Cruz Biotechnology), diluted in PBS-T+1% BSA, was added at 1/500 dilution. After 1 h at RT the plate was washed 3× with PBS-T and goat anti mouse-HRP, diluted in PBS-T+1% BSA, was added at 1/3333 dilution. After 1 h at RT the plate was washed 3× with PBS-T and binding of NME7 was measured at 415 nm using a ABTS solution (Pierce).

For assay [4] the target is unchanged. The assay can be described thus: sandwich ELISA, NME7-AB held on plate-bound PSMGFR, detection with HRP labeled anti-His-tag antibody. How it is done:
as §1, §2

Groups on a side chain read outwards from the residue. No end group written: not given here. maleimide = maleimide group on the activated BSA carrier, coupling the C-terminal Cys

B1: biotinylated PSMGFR peptide (PSMGFR-biotin) (peptide)
peptide: GTINVHDVETQFNQYKTEAASRYNLTISDVSVSDVPFPFSAQSGA
modifications: also: biotinylated (position not given here)
notes: also called second MUC1* peptide with biotin
Regarding B1, in assay [1], the binding result is given as “binds”.

B2: PSMGFR N-10 peptide (His-tagged) (peptide)
peptide: QFNQYKTEAASRYNLTISDVSVSDVPFPFSAQSGAHHHHHH
notes: loaded on NTA-Ni-SAM coated gold nanoparticles; also called N-10 PSMGFR peptide; MUC1* peptide on NTA-Ni-SAM nanoparticles
As to B2, the binding result in assay [2] was “binds”.

B3: PSMGFR peptide bearing a C-terminal Cysteine (PSMGFR-Cys) coupled to BSA (peptide)
peptide: GTINVHDVETQFNQYKTEAASRYNLTISDVSVSDVPFPFSAQSGAC([maleimide-BSA])
modifications: not fully specified
notes: Coated on the ELISA plate; also called PSMGFR-Cys coupled BSA; first MUC1* peptide of the sandwich ELISA
Take B3: in assay [3], the binding result is recorded as “binds”.

B4: histidine-tagged MUC1* extra cellular domain peptide (His-tagged PSMGFR sequence) (peptide)
peptide: GTINVHDVETQFNQYKTEAASRYNLTISDVSVSDVPFPFSAQSGAHHHHHH
notes: also called PSMGFR-His; HisTagged PSMGFR peptide
As for B4, in assay [4], the binding result was “binds”.

Values taken from patent US20230287338A1 (MINERVA BIOTECHNOLOGIES, published 2023).
